Molecular target: the molecule itself
Assay: SEC; Superdex 200 HR 10/30 in PBS (140 mM NaCl, 2.7 mM KCl, 10 mM Na2HPO4, pH 7.4), 0.5 mL/min; protein 2 mg/mL or 450 μg/100 μL (methods); markers albumin 66.4 kDa and α-lactalbumin 14.2 kDa; dimer in rapid equilibrium with monomer

B1: S175G/H181Q βB2-crystallin (natural protein, human)
chain: ASDHQTQAGKPQSLNPKIIIFEQENFQGHSHELNGPCPNLKETGVEKAGSVLVQAGPWVGYEQANCKGEQFVFEKGEYPRWDSWTSSRRTDSLSSLRPIKVDSQEHKIILYENPNFTGKKMEIIDDDVPSFHAHGYQEKVSSVRVQSGTWVGYQYPGYRGLQYLLEKGDYKDSGDFGAPQPQVQSVRRIRDMQWHQRGAFHPSN
notes: human βB2-crystallin with the double mutation found in nuclear cataract lenses, made by site-directed mutagenesis of pGEX-4t-1 CRBB2; also called S175G/H181Q mutant; CRBB2 S175G/H181Q; source: E. coli BL21 (DE3), purified (glutathione-agarose, cleaved from GST with thrombin)
binding result: binds
